According to publication doi:10.1101/2020.05.01.070730 (bioRxiv, 2020):

Molecular target: T1, MutS E. coli (Escherichia coli, UniProt P23909 1-853)
T1 sequence: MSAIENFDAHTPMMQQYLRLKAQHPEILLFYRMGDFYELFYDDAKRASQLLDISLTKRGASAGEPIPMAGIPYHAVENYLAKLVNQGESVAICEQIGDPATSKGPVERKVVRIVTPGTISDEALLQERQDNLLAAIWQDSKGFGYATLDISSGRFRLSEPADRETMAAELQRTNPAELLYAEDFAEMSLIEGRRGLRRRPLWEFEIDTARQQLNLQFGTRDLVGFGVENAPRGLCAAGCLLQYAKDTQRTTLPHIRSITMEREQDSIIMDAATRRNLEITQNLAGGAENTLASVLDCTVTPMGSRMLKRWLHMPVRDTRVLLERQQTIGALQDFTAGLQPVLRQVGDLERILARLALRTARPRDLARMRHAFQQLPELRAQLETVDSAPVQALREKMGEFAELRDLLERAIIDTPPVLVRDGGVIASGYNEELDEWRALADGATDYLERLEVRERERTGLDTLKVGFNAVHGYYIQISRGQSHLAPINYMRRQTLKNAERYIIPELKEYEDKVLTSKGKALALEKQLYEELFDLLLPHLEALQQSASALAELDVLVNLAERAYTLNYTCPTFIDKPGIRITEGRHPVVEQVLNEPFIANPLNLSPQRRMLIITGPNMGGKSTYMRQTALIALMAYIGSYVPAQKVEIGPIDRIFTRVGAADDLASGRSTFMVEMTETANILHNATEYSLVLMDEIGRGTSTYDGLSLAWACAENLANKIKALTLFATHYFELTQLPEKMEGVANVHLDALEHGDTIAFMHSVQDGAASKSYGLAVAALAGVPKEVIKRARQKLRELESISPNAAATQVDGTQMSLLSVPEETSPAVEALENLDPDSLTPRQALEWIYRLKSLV
Assay: native PAGE shift

B1: GT-dsDNA (GT 18 nt from 3' end) (dsDNA)
DNA 1: ATGTGAATCAGTATGGTTGCTATCTGCTGAAGGAAAT
DNA 2: ATTTCCTTCAGCAGATAGTAACCATACTGATTCACAT
binding result: binds
